Test results taken from article PMC10869282.

How the values were obtained:
[1] = target: cis-epoxysuccinate hydrolase producing L(+)-tartaric acid from Klebsiella sp. BK-58 (KlCESH[L]) (Klebsiella sp. BK-58); assay: SEC; gel filtration of the purified enzyme against a molecular standard mixture (ovalbumin, chymotrypsin, ribonuclease A, aprotinin); aggregation state of RhCESH[L] unchanged in the presence or absence of DTT
[2] = target: cis-epoxysuccinate hydrolase producing L(+)-tartaric acid from Rhodococcus opacus (RhCESH[L]) (Rhodococcus opacus); assay: as above

Substance	stoichiometry N [1]	stoichiometry N [2]
cis-epoxysuccinate hydrolase producing L(+)-tartaric acid from Klebsiella sp. BK-58 (KlCESH[L]) (enzyme)	2	–
cis-epoxysuccinate hydrolase producing L(+)-tartaric acid from Rhodococcus opacus (RhCESH[L]) (enzyme)	–	2
